Target: GST‐LC3B (human, UniProt Q9GZQ8 1-120)
Test: AlphaScreen or HTRF

B1: LIRtide (peptide)
peptide: SGGDDDWTHLS
  IC50: 1700 nM
